Target: recombinant Factor VIII Fc fusion protein (rFVIIIFc) (human) [IgG part: P0DOX5]
Test: cell-based or functional assay

percent of cells characterized as osteoclasts at day 7 after rFVIIIFc together with VWF (14.2% with rFVIIIFc alone): 45.7%
Substance: von Willebrand Factor (VWF) (from UniProt P04275 764-2813)
